Laboratory results as given in PMC12173945, “Import mechanism of peroxisomal proteins with an N-terminal signal sequence” (Nature Cell Biology, 2025).
Values belong to the molecule of their own block, whether it stands above or below them.

Key:
[1] = target: T1, yeast PEX7, P39108; assay: bead sedimentation (GST pull-down depletion) assay, SDS-PAGE with Coomassie quantification of PEX7 left in the supernatant; settings: chain shown with the change; 1 µM yeast PEX7; varying GST-PEX39 concentrations; 1 h; 25 °C; parent: 0.60 ± 0.056
T1 chain: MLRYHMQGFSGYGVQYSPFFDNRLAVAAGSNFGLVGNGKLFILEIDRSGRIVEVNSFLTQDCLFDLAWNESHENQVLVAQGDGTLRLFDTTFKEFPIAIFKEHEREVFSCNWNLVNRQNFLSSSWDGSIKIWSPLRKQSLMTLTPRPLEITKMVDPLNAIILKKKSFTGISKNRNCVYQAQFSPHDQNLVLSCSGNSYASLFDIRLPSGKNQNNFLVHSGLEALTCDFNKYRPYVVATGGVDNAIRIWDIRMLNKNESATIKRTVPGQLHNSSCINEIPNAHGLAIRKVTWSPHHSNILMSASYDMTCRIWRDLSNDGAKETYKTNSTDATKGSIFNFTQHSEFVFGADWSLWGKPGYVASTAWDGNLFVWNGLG

[2] = target: T2, yeast PEX7 fused at the C terminus to GFP (PEX7–GFP) (yeast (S. cerevisiae), UniProt P39108 1-375); assay: YG hydrogel release assay (confocal microscopy); hydrogels equilibrated 3 h at RT with 0.5 µM PEX7–GFP or PEX5–GFP, with or without PTS2 peptide and receptor; PEX39 then spiked in and gels imaged every 2 min for 1 h; settings: both partners purified
T2 construct: PEX7, yeast (S. cerevisiae); not shown: GST, N-terminal, cleaved; GFP, C-terminal, kept
T2 sequence (looked up): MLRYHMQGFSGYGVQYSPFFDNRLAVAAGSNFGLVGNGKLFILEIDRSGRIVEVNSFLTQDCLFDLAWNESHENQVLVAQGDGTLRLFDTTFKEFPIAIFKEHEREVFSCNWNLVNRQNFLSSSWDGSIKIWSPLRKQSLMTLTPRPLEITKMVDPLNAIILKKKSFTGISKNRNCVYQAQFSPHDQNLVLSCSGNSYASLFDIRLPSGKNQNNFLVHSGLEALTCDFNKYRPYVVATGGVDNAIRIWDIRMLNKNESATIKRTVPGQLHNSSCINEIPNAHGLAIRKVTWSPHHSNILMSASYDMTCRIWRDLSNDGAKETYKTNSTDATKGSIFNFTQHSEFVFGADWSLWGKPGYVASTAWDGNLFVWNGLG

[3] = target: T3, GST-tagged yeast PEX7 (GST–PEX7) (yeast (S. cerevisiae), UniProt P39108 1-375); assay: bead-binding assay (fluorescence on beads by spinning-disk confocal microscopy); GST-tagged protein on glutathione beads; GFP-fused partner in solution (1 µM each in Extended Data Fig. 9a); 1 h, RT; settings: both partners purified
T3 construct: PEX7, yeast (S. cerevisiae); GST followed by a TEV protease-cleavage site; source: purified recombinant; PEX7 was produced in P. pastoris as a fusion to an N-terminal GST tag; not shown: GST, N-terminal, kept
T3 sequence (looked up): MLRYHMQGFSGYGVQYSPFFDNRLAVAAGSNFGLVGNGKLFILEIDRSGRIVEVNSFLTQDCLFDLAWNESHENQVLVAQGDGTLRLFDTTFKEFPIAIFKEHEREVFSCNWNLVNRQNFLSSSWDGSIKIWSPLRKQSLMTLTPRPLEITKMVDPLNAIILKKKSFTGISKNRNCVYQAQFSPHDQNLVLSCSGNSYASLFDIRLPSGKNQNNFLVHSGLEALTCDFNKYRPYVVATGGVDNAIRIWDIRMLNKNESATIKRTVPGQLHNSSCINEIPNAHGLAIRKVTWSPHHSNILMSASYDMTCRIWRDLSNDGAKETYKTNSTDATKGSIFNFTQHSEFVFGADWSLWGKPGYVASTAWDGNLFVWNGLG

[4] = test system: YG hydrogel (wild-type YG-domain polypeptide of PEX13); assay: YG hydrogel permeation assay, wild-type hydrogel (Fig. 2, Fig. 3g, Extended Data Fig. 9d); settings: wild-type hydrogel
Protocol: A solution of the purified wild-type YG-domain polypeptide (or the variant lacking the KPWE motif) was concentrated to 2 mM in 50 mM HEPES·NaOH pH 7.8 at RT, 2 M urea and 2 mM TCEP. Aliquots of 2 µl were then spotted on the bottom of multiple wells of a 96-well glass-bottomed plate (Cellvis, P96-1.5H-N), which was then sealed with a gas-impermeable AlumaSeal II film (Hampton Research, HR8-069) to prevent desiccation and incubated at RT for 24 h. Before each assay, the resulting gels were equilibrated overnight at RT in a 100-fold excess of Assay Buffer (25 mM HEPES·NaOH pH 7.8 at RT, 150 mM NaCl and 1 mM TCEP). A 0.5 µM solution of fluorescently labelled protein in Assay Buffer was then added to the samples, with or without additional components at the concentrations indicated in the text, and incubated at RT. Gels were imaged at the times indicated in the text using a Nikon A1R point-scanning confocal system consisting of an inverted Nikon Eclipse Ti microscope and a Nikon ×20 0.75 NA Plan Apo air objective. The objective was centred on the gel edge and focus was maintained 5 µm above the glass surface using the Nikon Perfect Focus System. Fluorescence was excited through a 405/488/561/647 quad-band dichroic (Chroma), using a 488-nm solid-state laser (Coherent) and a galvano scanner. A 50-nm emission band was collected on a gallium arsenide phosphide detector, using an ET525/50m (525 ± 25 nm) single-band bandpass filter (Chroma) and a pinhole dilated to 0.9 Airy units. Images were acquired using the Nikon NIS-Elements software with a pixel size of 1 µm and a 12-bit digitizer. Imaging parameters were configured to maximize the SNR while avoiding saturation. All samples intended to be compared were imaged using identical acquisition settings.
For the YG hydrogel permeation assay, images were first oriented such that each gel edge faced the same direction. Fluorescence profiles across the buffer–gel interface were then generated by centering a 60 × 300 µm rectangular area on the gel edge and then measuring the mean fluorescence at each position within this selection. To express the resulting values in terms of fold enrichment, the fluorescence at each position along the selection was normalized to the average fluorescence in the buffer and plotted in terms of the distance from the gel edge.
To calculate permeation rates through the YG hydrogel, a 60 × 300 µm rectangular area was first centred on the gel edge. The resulting region was then thresholded to demarcate the permeation zone (that is, the distance traversed by the fluorescent species) from the buffer and non-permeated part of the gel. The width of the area above the threshold was then measured and plotted as a function of time. A linear fit to the data yielded the permeation rate.

other: Kobs (observed binding constant) [1]: 190 µM
B1: GST-tagged wild-type yeast PEX39 (GST–PEX39), P47087 ΔRPWE (RPWE motif converted to alanine) (protein)
chain: MAAGGELSYEELLDHILNNKPIPNIVEVPNVTLDEGLASTPSLRPRPAAAAGQLQHQSHQGSLDKPNISLDIDQESLEGMTSLTRLSECYDIQSKLQINDSDNDNDDNNNDNNKGDGNDDDNNTVTANPTAR

binding result [2]: binds
B2: wild-type yeast PEX39 (natural protein, UniProt P47087 1-132, looked up)
chain: MAAGGELSYEELLDHILNNKPIPNIVEVPNVTLDEGLASTPSLRPRPRPWEGQLQHQSHQGSLDKPNISLDIDQESLEGMTSLTRLSECYDIQSKLQINDSDNDNDDNNNDNNKGDGNDDDNNTVTANPTAR
notes: PEX39, yeast; also called WT; not shown: GST, N-terminal, cleaved

binding result [3]: binds
B3: yeast PEX39 fused at the C terminus to GFP (PEX39–GFP) (natural protein, UniProt P47087 1-132, looked up)
chain: MAAGGELSYEELLDHILNNKPIPNIVEVPNVTLDEGLASTPSLRPRPRPWEGQLQHQSHQGSLDKPNISLDIDQESLEGMTSLTRLSECYDIQSKLQINDSDNDNDDNNNDNNKGDGNDDDNNTVTANPTAR
notes: PEX39, yeast; not shown: GST, N-terminal, cleaved; GFP, C-terminal, kept

B4: PEX39–GFP: PEX39 fused at the C terminus to a GSG linker and mEGFP (protein)
chain: MAAGGELSYEELLDHILNNKPIPNIVEVPNVTLDEGLASTPSLRPRPRPWEGQLQHQSHQGSLDKPNISLDIDQESLEGMTSLTRLSECYDIQSKLQINDSDNDNDDNNNDNNKGDGNDDDNNTVTANPTAR
modifications: left off: GST, N-terminal, cleaved | GFP, C-terminal, kept
notes: PEX39 fused at the C terminus to a GSG linker and mEGFP
Entry into YG hydrogel [4]: did not by itself enter the YG hydrogel
